B1: hTERT peptide analogue p444* (APRRLVQLL) (peptide)
peptide: APRRLVQLL
notes: Synthetic peptide (Epytop); also called optimized p444*

Key:
[1] = target: T1, HLA-B*0702 molecule on HLA-B*0702 transfected TAP deficient T2 cells (T2-B7) (human); experiment: MHC stabilization assay on T2-B7 cells, flow cytometry with ME.1; ratio of concentration giving 20% of maximal binding against reference peptide R10TV
T1 construct: MHC class I molecule without a defined peptide, on the surface of T2-B7 cells; its surface level was read with the anti-HLA-B7 mAb ME.1 by flow cytometry; also called HLA-B7
Procedure: The relative avidity of hTERT derived peptides for HLA-*B0702 was measured by using a MHC stabilization assay on HLAB0702 transfected T2 (T2-B7) cells in comparison with a reference peptide (R10TV) as described (Rohrlich et al. Int Immunol 2003; 15:765-72). Briefly, T2-B7 were incubated overnight at 2×10⁵ cells/well in 96-well plates in serum free medium AIM-V (Invitrogen Corp., Gibco), supplemented with 100 ng/ml of human β2-microglobulin, in the absence (negative control) or in the presence of either reference peptide […] or hTERT peptides at various final concentrations (100, 10, 1 and 0.1 μM). T2-B7 cells were labelled with a saturating concentration of ME.1 an anti-HLA-B7 mAb, then washed twice and finally stained with FITC-conjugated F(ab′)2 goat anti-mouse Ig before flow cytometry.

[2] = target: T1, HLA-B*0702 molecule on HLA-B*0702 …; experiment: MHC stabilization assay on T2-B7 cells, ME-1 staining; ratio of concentration inducing 20% of HLA-B*0702 expression against reference peptide CMV265-274
Excerpt: The protocol used has been described previously (Rohrlich et al., 2003).

Binder	relative avidity [1]	RA (relative affinity) [2]
MPRAPRCRA (Synthetic peptide, minimum purity 80%) [hTERT peptide p1 (MPRAPRCRA, residues 1-9)]	0.4 ratio	
APRCRAVRSL (Synthetic peptide, minimum purity 80%) [hTERT peptide p4 (APRCRAVRSL, residues 4-13)]	0.3 ratio	
APSFRQVSCL (Synthetic peptide, minimum purity 80%) [hTERT peptide p68 (APSFRQVSCL, residues 68-77)]	0.4 ratio	
RPSLTGARRL (Synthetic peptide, minimum purity 80%) [hTERT peptide p351 (RPSLTGARRL, residues 351-360)]	1.5 ratio	
B1		1.4 ratio
